# In PMC12182893:
# pKd: −log10 of the molar value.
# Target: Pseudotyped lentivirus displaying Omicron BA.5 S protein (PV) (SARS-CoV-2 Omicron BA.5) (UniProt P0DTC2)
# Test: dot blot (filter binding)
row,Sequence,pKd
1,TTACGTCAAGGTGTCACTCCTGTGGGTGGAATGGGGAAGGGAGTGTTTTTTTTTGTGAGATGTGTGGTGTGGAATGGGGAAGCATCTCTTTGGCGTG [DRDA8],14.55
2,TTACGTCAAGGTGTCACTCCTGTGGGTGGAATGGGGAAGGGAGTGTTTTTTTTTTCGGAGATGTGTGTGTGAAACAGTGGGAAGCATCTCTTTGGCGTG [DRDA10],14.37
